In the test the target is SARS-CoV-2 WA1/2020 S2 protein (stabilized prefusion spike S2 trimer) (SARS-CoV-2 (USA-WA1/2020)) (UniProt P0DTC2). As to the kind of experiment: cryo-EM structure.

The term stoichiometry N denotes the number of molecules, sites or subunits per partner or assembly. On to “SARS-CoV-2 WA1/2020 S2 protein (stabilized prefusion spike S2 trimer) (from UniProt P0DTC2) (domain or fragment)”, for which the stoichiometry N was found to be 3.

These data come from paper PMC12477886.
